{"source": "the RNAGym collection of RNA variant scans (doi:10.7554/elife.80360)", "parents": {"B1": {"name": "Hairpin Ribozyme (parent)", "chain": "GUCCUCUUUCACGUGCGCGUGAAAGAGAGAAGUGAACCAGAGAAACACACGUUGUGGUAUAUUACCUGGUA"}}, "data": [{"variants_of": "B1", "assay": "self-cleavage, relative activity (ratio to wild type); higher = more cleavage; co-transcriptional", "values": [{"variant": "GGCCUCUUUCACGUGCGCGUGAAAGAGAGAAGUGAACCAGAGAAACACACGUUGUGGUAUAUUACCUGGUG", "note": "[U2G A71G]", "self-cleavage": 0.307}, {"variant": "GGCCUCUUUCACGUGCGCGUGAAAGAGAGAAGUCAACCAGAGAAACACACGUUGUGGUAUAUUACCUGGUA", "note": "[U2G G34C]", "self-cleavage": 0.736}, {"variant": "GGCCUCUUUCACGUGCGCGUGAAAGAGAGAAGUGAACCAGAGAAACACACGUUGUGGUCUAUUACCUGGUA", "note": "[U2G A59C]", "self-cleavage": 0.223}, {"variant": "GGCCUCUUUCACGUGCGCGUGAAAGAGAGAAGUGAACCAGAGAAACACACGUUGUGGUUUAUUACCUGGUA", "note": "[U2G A59U]", "self-cleavage": 0.0332}, {"variant": "GGCCUCUUUCACGUGCGCGUGAAAGAGAGAAGUGAACCAGAGAAACUCACGUUGUGGUAUAUUACCUGGUA", "note": "[U2G A47U]", "self-cleavage": 0.0492}, {"variant": "GGCCUCUUUCACGUGCGCGUGAAAGAGAGAAGUGAACCAGAGAAACACACGUUGUGGUAUAUUAACUGGUA", "note": "[U2G C65A]", "self-cleavage": 0.402}, {"variant": "GGCCUCUUUCACGUGCGCGUGAAAGAGAGAAGUGAACCAGAGAAACACACGUUGUGGUAUAUUAUCUGGUA", "note": "[U2G C65U]", "self-cleavage": 0.163}, {"variant": "GGCCUCUUUCACGUGCGCGUGAAAGAGAGAAGUGAACCAGAGAAACACACGUUGUGCUAUAUUACCUGGUA", "note": "[U2G G57C]", "self-cleavage": 0.117}, {"variant": "GGCCUCUUUCACAUGCGCGUGAAAGAGAGAAGUGAACCAGAGAAACACACGUUGUGGUAUAUUACCUGGUA", "note": "[U2G G13A]", "self-cleavage": 0.338}, {"variant": "GGCCUCUUUCACGUGAGCGUGAAAGAGAGAAGUGAACCAGAGAAACACACGUUGUGGUAUAUUACCUGGUA", "note": "[U2G C16A]", "self-cleavage": 0.398}, {"variant": "GGCCUCUUUCACGUGCGCGUGAAAGAGAGAAGUGAACCAAAGAAACACACGUUGUGGUAUAUUACCUGGUA", "note": "[U2G G40A]", "self-cleavage": 0.105}, {"variant": "GGCCUCUUUCACGUGCCCGUGAAAGAGAGAAGUGAACCAGAGAAACACACGUUGUGGUAUAUUACCUGGUA", "note": "[U2G G17C]", "self-cleavage": 0.367}, {"variant": "GGUCUCUUUCACGUGCGCGUGAAAGAGAGAAGUGAACCAGAGAAACACACGUUGUGGUAUAUUACCUGGUA", "note": "[U2G C3U]", "self-cleavage": 0.181}, {"variant": "GGCCUCUUUCACGUGCGCGUGAAAGAGAGAAGUGAACCAGAAAAACACACGUUGUGGUAUAUUACCUGGUA", "note": "[U2G G42A]", "self-cleavage": 0.0588}, {"variant": "GGCCUCUUUCAGGUGCGCGUGAAAGAGAGAAGUGAACCAGAGAAACACACGUUGUGGUAUAUUACCUGGUA", "note": "[U2G C12G]", "self-cleavage": 0.184}, {"variant": "GGCCUCUUUCACGUGCGCGUGAAAGAGAGAAGUGAACCAGAGAAAAACACGUUGUGGUAUAUUACCUGGUA", "note": "[U2G C46A]", "self-cleavage": 0.121}, {"variant": "GGCCUCUUUCACGUGCGCGUGAAAGAGAGAAGUGAACCAGAGAAACACACAUUGUGGUAUAUUACCUGGUA", "note": "[U2G G51A]", "self-cleavage": 0.306}, {"variant": "GGCCUCUUUCACGUGCGCGUGAAAGAGAGAAGUGAACCAGAGAAACACACUUUGUGGUAUAUUACCUGGUA", "note": "[U2G G51U]", "self-cleavage": 0.389}, {"variant": "GGCCUCUUUCACGUGCGCGUGAAAGAGAGAAGUGAACCAGAGAAUCACACGUUGUGGUAUAUUACCUGGUA", "note": "[U2G A45U]", "self-cleavage": 0.0683}, {"variant": "GGCCUCUUUCACGUGCGCGUGAAAGAGAGAAGUGAACCAGAGAACCACACGUUGUGGUAUAUUACCUGGUA", "note": "[U2G A45C]", "self-cleavage": 0.0592}, {"variant": "GGCCUCUUUCACGUGCGCGUGAAAGAGAGAAGUGAACCAGAGAAACACACGUUAUGGUAUAUUACCUGGUA", "note": "[U2G G54A]", "self-cleavage": 0.114}, {"variant": "GGCCUCUUUCACGUGCGCGUGAAAGAUAGAAGUGAACCAGAGAAACACACGUUGUGGUAUAUUACCUGGUA", "note": "[U2G G27U]", "self-cleavage": 0.172}, {"variant": "GGCCUCUUUCACGUGCGCGUGAAAGAAAGAAGUGAACCAGAGAAACACACGUUGUGGUAUAUUACCUGGUA", "note": "[U2G G27A]", "self-cleavage": 0.139}, {"variant": "GGCAUCUUUCACGUGCGCGUGAAAGAGAGAAGUGAACCAGAGAAACACACGUUGUGGUAUAUUACCUGGUA", "note": "[U2G C4A]", "self-cleavage": 0.242}, {"variant": "GGCUUCUUUCACGUGCGCGUGAAAGAGAGAAGUGAACCAGAGAAACACACGUUGUGGUAUAUUACCUGGUA", "note": "[U2G C4U]", "self-cleavage": 0.15}, {"variant": "GGCCUCUUUCACGUGCGCGUGAAAGAGAGAAGUGAACCAGAGAAACAUACGUUGUGGUAUAUUACCUGGUA", "note": "[U2G C48U]", "self-cleavage": 0.117}, {"variant": "GGCCUCUUUCACGUGCGCGUGAAAGAGAGAAGUGAACCAGAGAAACACUCGUUGUGGUAUAUUACCUGGUA", "note": "[U2G A49U]", "self-cleavage": 0.053}, {"variant": "GGCCUCUUUCACGUGCGCGUGAAAGAGAGAAGUGAACCAGAGAAACACACGUUGUGGUAUAUUUCCUGGUA", "note": "[U2G A64U]", "self-cleavage": 0.0768}, {"variant": "GGCCUCUUUCACGUGCGCGUAAAAGAGAGAAGUGAACCAGAGAAACACACGUUGUGGUAUAUUACCUGGUA", "note": "[U2G G21A]", "self-cleavage": 0.265}, {"variant": "GGCCUCUUUCACGUGCGCUUGAAAGAGAGAAGUGAACCAGAGAAACACACGUUGUGGUAUAUUACCUGGUA", "note": "[U2G G19U]", "self-cleavage": 0.336}, {"variant": "GGCCUCUUUCACGUGCGCGUGAAAGAGAGAAGUGAAUCAGAGAAACACACGUUGUGGUAUAUUACCUGGUA", "note": "[U2G C37U]", "self-cleavage": 0.319}, {"variant": "GGCCUCUUUCACGUGCGCGUGAAAGAGAGAAGUGAAACAGAGAAACACACGUUGUGGUAUAUUACCUGGUA", "note": "[U2G C37A]", "self-cleavage": 0.131}, {"variant": "GGCCUCUUUCACGUGCGCGUGAAAGAGAGAAGUGAACCAGAGAAACACACGUUGUGGUAUAUUACGUGGUA", "note": "[U2G C66G]", "self-cleavage": 0.124}, {"variant": "GGCCUCUUUCACGUGCGCGUGAAAGAGAGAAGUGAACCAGAGAGACACACGUUGUGGUAUAUUACCUGGUA", "note": "[U2G A44G]", "self-cleavage": 0.0352}, {"variant": "GGCCUCUUUCACGUGCGCGUGAAAGAGAGAAGUGAACCAGAGAAACACACGUUGUGGUAUAUUACCUGCUA", "note": "[U2G G69C]", "self-cleavage": 0.0755}, {"variant": "GGCCUCUUUCACGUGCGCGUGAAAGAGAGAAGUGAACCAGAGAAACACAUGUUGUGGUAUAUUACCUGGUA", "note": "[U2G C50U]", "self-cleavage": 0.157}, {"variant": "GGCCUCUUUCACGUGCGCGUGAAAGAGAGAAGUGAACCAGAGAAACACAGGUUGUGGUAUAUUACCUGGUA", "note": "[U2G C50G]", "self-cleavage": 0.1}, {"variant": "GGCCUCUUUCACGUGCGCGUGAAAGAGAAAAGUGAACCAGAGAAACACACGUUGUGGUAUAUUACCUGGUA", "note": "[U2G G29A]", "self-cleavage": 0.168}]}]}
